Entries after “also recorded” stand apart in the source; their conditions may differ.

The results in this text go back to article PMC4058522, “Structural Basis for Phosphorylation-Dependent Recruitment of Tel2 to Hsp90 by Pih1” (Structure(London, England:1993), 2014).

Data set [1] concerns human Hsp90β. Kind of data set: Hsp90 ATPase assay, human Hsp90β. Type of data set: biochemical. As to conditions: 10 μM Hsp90β, 40 μM RPAP3; % maximum activity of wild type.
Data set [2] concerns the target full-length Hsp90 dimer. Briefly: ITC, Spagh/RPAP3 binding to full-length Hsp90 dimer. The following applies: 500 μM yeast Hsp90 into 20 μM Spagh/RPAP3^120–395, 10 mM Tris pH 7.5, 5 mM NaCl, ~1:2 molar ratio. On the procedure: Heat of interaction was measured on an ITC200 microcalorimeter (Microcal) under the same buffer conditions (20 mM Tris, pH 7.5, containing 5 mM NaCl). Aliquots of the Tel2 peptides at 350 μM were injected into 30 μM of Pih1 at 30°C. Interactions with Tah1 or Spagh/RPAP3^120–395 were performed in 10 mM Tris pH 7.5 and 5 mM NaCl at 10°C and 30°C. Aliquots of 600 μM Tah1 were injected into 40 μM of yeast Hsp90, 400 μM of SRMEEVD injected into 30 μM Tah1, 301 μM yeast Hsp90 injected into 25 μM yeast Tah1-Pih1 complex, and 400 μM SRMEEVD injected into 30 μM yeast Tah1-Pih1 complex. For Spagh/RPAP3^120–395 experiments, aliquots of 500 μM yeast Hsp90 were injected into 20 μM Spagh/RPAP3^120–395 or 2 mM […] into 80 μM Spagh/RPAP3^120–395 or mutants (N172E, N321E, and N172E-N321E). Heats of dilution were determined by diluting injectant into buffer. Data were fitted using a curve-fitting algorithm (Microcal Origin). ATPase assays were previously described ([Prodromou et al., 1999]).
Background: ITC needs no label: the signal is the heat of the interaction.

B1: Spagh/RPAP3: tandem TPR region of human Spagh/RPAP3, residues 120–395 (protein)
chain: ESEEDGIHVDSQKALVLKEKGNKYFKQGKYDEAIDCYTKGMDADPYNPVLPTNRASAYFRLKKFAVAESDCNLAVALNRSYTKAYSRRGAARFALQKLEEAKKDYERVLELEPNNFEATNELRKISQALASKENSYPKEADIVIKSTEGERKQIEAQQNKQQAISEKDRGNGFFKEGKYERAIECYTRGIAADGANALLPANRAMAYLKIQKYEEAEKDCTQAILLDGSYSKAFARRGTARTFLGKLNEAKQDFETVLLLEPGNKQAVTELSKIKK
modifications: left off: GST, end not stated, state not stated
By Kd is commonly meant the constant that tells how readily two partners part at equilibrium. As to B1, the “effect on ATPase activity of human Hsp90β (in words)” value in data set [1] is “failed to show any strong regulatory effect; also recorded: no major effect”. The Kd in data set [2] was 6.8 µM.
